{
  "source": "patent US5484732",
  "about": "“Transcription factor for regulation of the development of skin and hair” (The Regents of the University of California, dated 1996)",
  "proteins": {"B1": {"name": "Δ32 Skn-1i (other)", "chain": "LQPNLLSFPQQQSTLLLPQTGPGLTSQAVGRPGLSGSSLEPHLEASQHLPGPKHLPGPGGNDEPTDLEELEKFAKTFKQRRIKLGFTQGDVGLAMGKLYGNDFSQTTISRFEALNLSFKNMCKLKPLLEKWLNDAESSPADPSASTPSSYPTLSEVFGRKRKKRTSIETNIRLTLEKRFQDNPKPSSEEISMIAEQLSMEKEVVRVWFCNRRQKEKRINCPVATPVKPPIYNSRLVSPSGSLGSLSVPPVHSTMPGTVTSSCSPGNNSRPSSPGSGLHASSPTASQNNSKAAMNPSSAAFNSSGSWYRWNHPAYLH"}},
  "biological_target": "the molecule itself",
  "test": "DSS crosslinking in solution of 35S-labelled protein translated in vitro, SDS/polyacrylamide gel (self-association)",
  "method": "With respect to (1), the effect of the Skn-1i inhibitory region on dimerization in solution was assayed by the ability of a homobifunctional crosslinking agent [disuccnidyl suberate (DSS)] to crosslink in vitro translated proteins.\nSpecifically, approximately 100,000 cpm of ^35S-labeled Skn-1i, Δ32Skn-1i, 1–99 (N/T) Skn1-i and Δ60 (N/T) Skn1-i proteins were added separately to […] of binding buffer (10 mM HEPES [pH7.8], 50 mM K CI, 5% glycerol). After 15 minutes at room temperature, […] of DSS (suspended in 5 mg/ml DMSO) or DMSO alone was added to each of the reactions. After 5 minutes, the reaction was stopped by adding SDS sample buffer to each which was then boiled prior to analyses on SDS/polyacrylamide gels. To quantitate crosslinking efficiency, monomers (\"M\" on FIG. 12) and dimers (\"D\" on FIG. 12) were excised from the gel and counted by scintillation counting.",
  "data": [
    {"protein": "B1", "values": [
      {"measurement": "binding result", "value": "no binding"}
    ]}
  ]
}
